B1: Signaling lymphocytic activation molecule (Homo sapiens), Q13291 (parent)
chain: MDPKGLLSLTFVLFLSLAFGASYGTGGRMMNCPKILRQLGSKVLLPLTYERINKSMNKSIHIVVTMAKSLENSVENKIVSLDPSEAGPPRYLGDRYKFYLENLTLGIRESRKEDEGWYLMTLEKNVSVQRFCLQLRLYEQVSTPEIKVLNKTQENGTCTLILGCTVEKGDHVAYSWSEKAGTHPLNPANSSHLLSLTLGPQHADNIYICTVSNPISNNSQTFSPWPGCRTDPSETKPWAVYAGLLGGVIMILIMVVILQLRRRGKTNHYQTTVEKKSLTIYAQVQKPGPLQKKLDSFPAQDPCTTIYVAATEPVPESVQETNSITVYASVTLPES

Variants of: B1
Settings: with hema_mease H

| Variant | effect of a mutation on the interaction |
| --- | --- |
| R90A | decreasing interaction |
| P88G;P89G | decreasing interaction |
| Y91A | decreasing interaction |

Source: IntAct's records for PubMed 20010840
